This note sets out measurements from patent publication US20060193821, “Aptamers to the human IL-12 cytokine family and their use as autoimmune disease therapeutics” (published 2006).

The target of data set [1] is T1, IL-23 (human, p19/p40 heterodimer) (Homo sapiens, UniProt Q9NPF7;P29460 SEQ:20-189,SEQ:23-328). As to the kind of experiment: competition; direct +tRNA 69 nM. Particulars: tags: R&D Systems, carrier free. As for the experimental part:
The fraction aptamer bound vs. [IL-23] was used to calculate the KD by fitting the following equation to the data: Fraction aptamer bound=amplitude*([IL-23]/(KD+[IL-23]))+background binding.
(§1) Several of the minimized constructs from the dRmY Selection 2 were also assayed in a competition format in which cold aptamer was titrated and competed away trace ³²P ATP labeled aptamer In the competition assay, the [IL-23] was held constant, the [trace labeled aptamer] was held constant, and the [unlabeled aptamer] was varied. The KD was calculated by fitting the following equation to the data: Fraction aptamer bound=amplitude*([aptamer]/(KD+[aptamer]))+background binding.

For data set [2], the target named is T1, IL-23 (human, p19/p40 heterodimer). The data set can be described thus: filter; DPBS Ca Mg, 0.1 mg/mL BSA. Particulars: tags: R&D Systems, carrier free. Here is the method: The dot blot binding assay previously described was used to characterize the relative potency of the majority of the aptamers synthesized. For KD determination, chemically synthesized aptamers were purified using denaturing polyacrylamide gel electrophoresis, 5′end labeled with γ-³²P ATP and were tested for direct binding to full human IL-23. An 8 point protein titration was used in the dot blot binding assay (either {100 nM, 30 nM, 10 nM, 3 nM, 1 nM, 300 pM, 100 pM, 0 pM} or {10 nM, 3 nM, 1 nM, 300 pM, 100 pM, 30 pM, 10 pM, 0 pM}) in Dulbecco's PBS (with Mg⁺⁺ and Ca⁺⁺) with 0.1 mg/mL BSA. KD values were calculated by fitting the equation y=(max/(1+K/protein))+yint using KaleidaGraph (KaleidaGraph v. 3.51, Synergy Software). Sequences of the ARC979 derivatives synthesized, purified and assayed for binding to IL-23 as well as the results of the protein binding characterization are tabulated below in Tables 29 and 30.

For data set [3] the target is unchanged. As to the kind of experiment: cell_activity; IL-23/IL-18 induced IFN-gamma, PHA blasts. Particulars: tags: R&D Systems, carrier free. Here is the method: (§2) PHA Blasts were isolated and prepared as described above. Once isolated, PHA Blasts were cultured for 4 days before use (with no re-feeding the night before use). After culturing for 4 days, an appropriate number of cells (enough for 0.5×10^6 cells per well) were collected, pelleted by centrifugation and washed with RPMI 1640 and 0.2% FBS (repeated twice). These cells were then serum starved by placement into 2, 150 mm sterile culture dishes with 25 mL of RPMI 1640-0.2% FBS each for 2-3 hours. Following serum starvation, cells were plated in a 96 well microtiter plate at a density of 0.5×10^6 cells per 200 μl of serum starved media.
(§3) IL-12/IL-18 or IL-23/IL-18 was used to induce IFN-γ production in PHA Blasts as follows. 10 μl of IL-23 (R&D Systems) at a concentration of 60 ng/mL (or 10 μl of IL-12 at a concentration of 20 ng/mL), and 10 μl of IL-18 (MBL) at a concentration of 200 ng/mL were added to the appropriate wells. […] Following incubation, 200 μl of supernatant was removed from each well and either flash frozen at −80° C., or quantified immediately for IFN-γ. An ELISA kit was used to quantify the IL-23/IL-18 and IL-12/IL-18 induced IFN-γ in PHA Blasts according to the manufacturer's recommended protocol (Recombinant human IFN-γ Quantikine Kit, R&D Systems, Minneapolis, Minn.). The colorimetric readout was quantified using a 96 well plate reader and absorbance values were graphed.

Data set [4] deals with IL-12 (human, p35/p40 heterodimer) (Homo sapiens, UniProt P29459;P29460 SEQ:57-253,SEQ:23-328). As to the kind of experiment: cell_activity; IL-12/IL-18 induced IFN-gamma, PHA blasts. As for the experimental part: as §2, §3
For data set [5], the target named is T1, IL-23 (human, p19/p40 heterodimer). The data set can be described thus: filter; -tRNA; competition 8 nM. Particulars: tags: R&D Systems, carrier free. As for the experimental part: These molecules were gel purified and assayed for IL-23 binding using the dot blot assay as described above and compared to each other and to the parent molecule, ARC979. An 8 point IL-23 titration (0 nM to 300 nM, 3 fold serial dilutions) was used in the binding assay.

Data set [6] shares this target. The data set can be described thus: cell_activity; Pathscan pSTAT3, PHA blasts. Particulars: tags: R&D Systems, carrier free. Here is the method: (§4) PHA Blasts were isolated and prepared as described above and treated with hIL-23 at a final constant concentration of 6 ng/mL (R&D Systems, Minneapolis, Minn.) to induce STAT3 activation, instead of using 3 ng/mL as previously described with the TransAM™ assay. Clones were screened by using a 6-point […] titration from 0 to 700 nM in 3 fold dilutions in combination with a constant IL-23 concentration of 6 ng/mL of IL-23 (R&D Systems, Minneapolis, Minn.) to induce STAT3 activation, instead of using 3 ng/mL as previously described with the TransAM™ assay. Lysates of treated cells were prepared using the buffers provided by the Pathscan kit, and the assay was run according to the manufacturer's instructions. IC₅₀s for the full length clones were calculated from the dose response curves.

The target is the same in data set [7]. As to the kind of experiment: cell_activity; Pathscan, +/-1; TransAM 40 nM. Particulars: tags: R&D Systems, carrier free; G4. Here is the method: as §4
Data set [8] has the same target. As to the kind of experiment: competition; direct +tRNA 117 nM. Particulars: tags: R&D Systems, carrier free. As for the experimental part: as §1
Table 25 below summarizes the minimized sequences and the parent clone from which they were derived, and Table 26 summarizes the binding characterization from direct binding assays (+/−tRNA) and competition binding assays for the minimized constructs tested.

The target is the same in data set [9]. The data set can be described thus: filter; non functional, lacks G doubles. To be noted: tags: R&D Systems, carrier free.
Data set [10] shares this target. The data set can be described thus: cell_activity; TransAM STAT3, PHA blasts; Table 35 gives 1 uM for full length. Particulars: tags: R&D Systems. As for the experimental part:
(§5) In summary, the cell-based assay was conducted by isolating the peripheral blood mononuclear cells (PBMCs) from whole blood using a Histopaque gradient (Sigma, St. Louis, Mo.). The PBMCs were cultured for 3 to 5 days at 37° C./5% CO₂ in Peripheral Blood Medium (Sigma) which contains PHA, supplemented with IL-2 (100 units/mL) (R&D Systems, Minneapolis, Minn.), to generate PHA Blasts. To test IL-23 aptamers, the PHA Blasts were washed twice with 1×PBS, then serum starved for four hours in RPMI, 0.20% FBS. After serum starvation, approximately 2 million cells were aliquotted into appropriately labeled eppendorf tubes. hIL-23 at a final constant concentration of 3 ng/mL (R&D Systems, Minneapolis, Minn.) was combined with a dilution series of various IL-23 aptamers as described in Example 1, and the cytokine/aptamer mixture was added to the aliquotted cells in a final volume of 100 μl and incubated at 37° C. for 10-12 minutes. The incubation reaction was stopped by adding 1 mL of ice-cold PBS with 1.5 mM Na₃VO₄. Cell lysates were made using the lysis buffer provided by the TransAM™ STAT 3 assay following the manufacturer's instructions. FIG. 20 depicts a flow summary of the protocol used for the cell based assay.
(§6) Full length clones from the rRfY selection described in Example 1A, and select minimized rRfY clones that were described in Example 2A. […]

Data set [11] has the same target. As to the kind of experiment: cell_activity; TransAM STAT3, PHA blasts; Table 35 gives 700 nM for full length. To be noted: tags: R&D Systems. Here is the method:
as §5, §6

The target is the same in data set [12]. As to the kind of experiment: cell_activity; TransAM STAT3, PHA blasts, 3 ng/mL hIL-23. Particulars: tags: R&D Systems. Here is the method: as §5, §6

T1 sequence (Q9NPF7 20-189, chain 1 of 2): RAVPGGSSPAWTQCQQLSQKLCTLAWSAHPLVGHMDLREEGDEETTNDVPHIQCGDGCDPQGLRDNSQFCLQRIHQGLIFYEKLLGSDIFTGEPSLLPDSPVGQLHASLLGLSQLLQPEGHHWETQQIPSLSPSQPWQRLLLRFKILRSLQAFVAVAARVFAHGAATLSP
T1 sequence (P29460 23-328, chain 2 of 2): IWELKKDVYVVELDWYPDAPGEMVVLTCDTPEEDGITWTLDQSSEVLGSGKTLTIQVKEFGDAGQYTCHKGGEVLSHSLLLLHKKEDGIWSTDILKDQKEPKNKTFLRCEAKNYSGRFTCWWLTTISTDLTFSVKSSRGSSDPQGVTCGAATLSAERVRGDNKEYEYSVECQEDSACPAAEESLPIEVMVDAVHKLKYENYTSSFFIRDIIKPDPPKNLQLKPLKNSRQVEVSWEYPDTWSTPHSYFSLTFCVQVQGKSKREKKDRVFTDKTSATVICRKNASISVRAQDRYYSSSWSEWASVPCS
IL-12 (human, p35/p40 heterodimer), sequence (P29459 23-219, chain 1 of 2): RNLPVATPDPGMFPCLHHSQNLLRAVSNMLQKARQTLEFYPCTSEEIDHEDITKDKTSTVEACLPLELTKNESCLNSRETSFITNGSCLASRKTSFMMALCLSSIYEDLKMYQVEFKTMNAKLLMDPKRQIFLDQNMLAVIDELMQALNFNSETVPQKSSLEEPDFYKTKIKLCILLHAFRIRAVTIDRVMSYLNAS
IL-12 (human, p35/p40 heterodimer), sequence (P29460 23-328, chain 2 of 2): as the sequence (P29460 23-328, chain 2 of 2) above

B1: ARC794 (mixed)
RNA: GGCGGUACGGGGAGUGUGGGUUGGGGCCGG
modifications: deoxy A,G; 2'-OMe C,U
What is called Kd is the equilibrium constant for the complex coming apart. With B1, binding in data set [1] was put at a Kd of 14 nM.

B2: ARC1620 (mixed)
RNA: ACAGGCAAGUAAUUGGGGAGUGCGGGCGGGGUGU
modifications: 2'-OMe C,U and G16,G17,G24,G25,G30,G31; other A,G deoxy; PS 2-3; 3'-idT [PS 2-3; 2'-OMe at 2,6,10,13,14,16,17,21,23,24,25,27,30,31,32,34; other A,G deoxy; 3'-inverted dT at 35]
Consider B2, for which the dissociation constant (Kd) in data set [2] turned out to be 0.4 nM.

B3: ARC1988 (mixed)
RNA: B2 RNA
modifications: ARC1623 with 5' 40 kDa PEG; 3'-idT
The IC50 is the concentration that inhibits the measured activity by half. Consider B3, for which the half-inhibitory concentration (IC50) in data set [3] is ~4 nM; in [4], ~122 nM.

B4: ARC1163 (mixed)
RNA: B2 RNA
modifications: deoxy A,G; 2'-OMe C,U; PS 21-22 [PS between 21-22; 2'-OMe C,U at 2,6,10,13,14,21,23,27,32,34; deoxy A,G at all other positions]
In data set [5], B4 registered a Kd of 49 nM.

B5: ARC1624 (mixed)
RNA: B2 RNA
modifications: 2'-OMe C,U and G16,G17,G24,G25,G30,G31; other A,G deoxy; PS 25-26,27-28,28-29; 3'-idT [2'-OMe C2,C6,U10,U13,U14,G16,G17,U21,C23,G24,G25,C27,G30,G31,U32,U34; other A,G deoxy; PS 25-26,27-28,28-29 (N = PS linkage, left out); 3'-inverted dT 35]
Turning to B5, the IC50 in [6] was 2 nM.

B6: ARC979 (mixed)
RNA: B2 RNA
modifications: deoxy A,G; 2'-OMe C,U
B6: the concentration for half-maximal inhibition (IC50) in data set [7] amounted to 6 nM.

B7: ARC792 (mixed)
RNA: GGCAAGUAAUUGGGGAGUGCGGGCGGGG
modifications: deoxy A,G; 2'-OMe C,U
For the molecule B7, the equilibrium dissociation constant (Kd) in data set [8] stood at 11 nM.

B8: ARC793 (mixed)
RNA: CUACAAGGCGGUACGGGGAGUGUGG
modifications: deoxy A,G; 2'-OMe C,U
Take B8: in data set [9], the binding result is recorded as “no binding”.

B9: AMX84-A10 (ssRNA)
RNA: GGGAAAAGCGAAUCAUACACAAGAAGUUUUUUGUGCUCUGAGUACUCAGCGUCCGUAAGGGAUAUGCUCCGCCAGAGACCAACCGAGAA
modifications: 2'-F C and U, 2'-OH A and G
In data set [10], B9 came in with an IC50 of 400 nM.

B10: AMX84-B10 (ssRNA)
RNA: GGGAAAAGCGAAUCAUACACAAGAAGUGCUUCAUGCGGCAAACUGCAUGACGUCGAAUAGAUAUGCUCCGCCAGAGACCAACCGAGAA
modifications: 2'-F C and U, 2'-OH A and G
With B10, the IC50 in data set [11] is > 1000 nM.

B11: AMX84-H12 family clone AMX91-H12 (ssRNA)
RNA: GGGAAAAGCGAAUCAUACACAAGACGUGUGCUUUAUGUAAACCAUAACGUUCCAUAAGGAAUAUGCUCCGCCAGAGACCAACCGAGAA
modifications: 2'-F C and U, 2'-OH A and G
B11 showed an IC50 in [12] of 350 nM.
